Measurements reported in patent publication US20260151494A1 (ARO BIOTHERAPEUTICS, published 2026).
Substitutions are numbered along the chain they refer to.

B1: CD71-binding FN3 domain of SEQ ID NO: 152 (designed binder)
chain: MSLPAPKNLVVSRVTEDSARLSWTAPDAAFDSFDIGYFEATYYGEAIVLTVPGSERSYDLTGLKPGTEYWVQIGGVKGGNWSAPLSAIFTT
B2: CD71-binding FN3 domain of SEQ ID NO: 183 (designed binder)
chain: B1 chain with V11I, D34E, G36V, F38A, A40P, T41V, Y42R, Y43F, N80E, A83S
B3: CD71-binding FN3 domain of SEQ ID NO: 166 (designed binder)
chain: B1 chain with D34E, A40N, T41L, Y43L, V76I
B4: CD71-binding FN3 domain of SEQ ID NO: 176 (designed binder)
chain: B1 chain with D34F, F38L, A40P, T41Q, Y42P, Y43P, V48H, T50F
B5: CD71-binding FN3 domain of SEQ ID NO: 160 (designed binder)
chain: B1 chain with D34E, A40N, T41L, Y43L, A83V
B6: CD71-binding FN3 domain of SEQ ID NO: 191 (designed binder)
chain: B1 chain with D34E, A40N, T41L, Y43L, T61A
B7: CD71-binding FN3 domain of SEQ ID NO: 172 (designed binder)
chain: B1 chain with L3R, D27G, D34E, G36A, A40R, Y42W, Y43F, G53S, N80D, A83K
B8: CD71-binding FN3 domain of SEQ ID NO: 155 (designed binder)
chain: B1 chain with K7E, D34E, A40N, T41L, Y43L, N80V, A83R
B9: CD71-binding FN3 domain of SEQ ID NO: 164 (designed binder)
chain: B1 chain with D34F, F38L, A40P, T41Q, Y42P, Y43P, V48H, T50Y
B10: CD71-binding FN3 domain of SEQ ID NO: 170 (designed binder)
chain: B1 chain with D34E, A40N, T41L, Y43L, A83T
B11: CD71-binding FN3 domain of SEQ ID NO: 184 (designed binder)
chain: B1 chain with L21P, D34E, G36A, A40R, Y42W, Y43F, N80D, A83K
B12: CD71-binding FN3 domain of SEQ ID NO: 194 (designed binder)
chain: B1 chain with D34E, A40N, T41L, Y43L, W70P, Q72W, N80T, A83V, A87T
B13: CD71-binding FN3 domain of SEQ ID NO: 189 (designed binder)
chain: B1 chain with D34E, A40H
B14: CD71-binding FN3 domain of SEQ ID NO: 171 (designed binder)
chain: B1 chain with D34E, A40N, T41L, Y43L, N80E, A83S
B15: CD71-binding FN3 domain of SEQ ID NO: 193 (designed binder)
chain: B1 chain with D34E, A40N, T41L, Y43L, A83E
B16: CD71-binding FN3 domain of SEQ ID NO: 181 (designed binder)
chain: B1 chain with D34E, A40N, T41D, Y43F
B17: CD71-binding FN3 domain of SEQ ID NO: 157 (designed binder)
chain: B1 chain with D34E, F38G, A40F, A83N
B18: CD71-binding FN3 domain of SEQ ID NO: 175 (designed binder)
chain: MSLPAPKNLVVSRVTEDSARLSWTAPDAAFDSFEIAYQELSLWGEAIVLTVPGSERSYDLTGLKPGTEYVVFIGGVKGGVWSVPLSAIFTT
B19: CD71-binding FN3 domain of SEQ ID NO: 156 (designed binder)
chain: B1 chain with D34E, A40M, T41S, Y42W, Y43T, W70V, Q72F
B20: CD71-binding FN3 domain of SEQ ID NO: 174 (designed binder)
chain: B1 chain with D27N, D34E, A40N, T41L, Y43L
B21: CD71-binding FN3 domain of SEQ ID NO: 177 (designed binder)
chain: B1 chain with D34E, A40N, T41L, Y43L, G62S
B22: CD71-binding FN3 domain of SEQ ID NO: 169 (designed binder)
chain: B1 chain with D34E, A40N, T41L, Y43L, I88T
B23: CD71-binding FN3 domain of SEQ ID NO: 158 (designed binder)
chain: B1 chain with D34E, G36A, A40R, Y42W, Y43F, N80D, A83K
B24: CD71-binding FN3 domain of SEQ ID NO: 190 (designed binder)
chain: B1 chain with V11I, D34E, A40N, T41L, Y43L, F89S
B25: CD71-binding FN3 domain of SEQ ID NO: 159 (designed binder)
chain: B1 chain with D34E, G36V, F38Q, A40N, T41S, Y42A, F89S
B26: CD71-binding FN3 domain of SEQ ID NO: 182 (designed binder)
chain: B18 chain with K7E, A36G, Q38W, L40N, S41A, L42Y, W43K, A87V
B27: CD71-binding FN3 domain of SEQ ID NO: 188 (designed binder)
chain: B18 chain with A36G, Q38W, L40N, S41A, L42Y, W43K, V80H, W81G, V83Q
B28: CD71-binding FN3 domain of SEQ ID NO: 173 (designed binder)
chain: B18 chain with V70Y, F72H, V80I, V83S, S86V, I88H
B29: CD71-binding FN3 domain of SEQ ID NO: 192 (designed binder)
chain: B1 chain with D34E, A40N, T41L, Y43L, N80W, W81G, A83N
B30: CD71-binding FN3 domain of SEQ ID NO: 187 (designed binder)
chain: B1 chain with D34E, F38W, A40N, T41A, Y43K, W70R, Q72W, N80V, A83R
B31: CD71-binding FN3 domain of SEQ ID NO: 186 (designed binder)
chain: B1 chain with D34E, A40N, T41P, Y43L

Tests used:
[1] = target: T1, human CD71 extracellular domain (human, UniProt P02786 89-760); experiment: primary ELISA; also: test concentration or dose not given here
T1 construct: also called hCD71; human CD71-ECD
T1 sequence (P02786 89-760): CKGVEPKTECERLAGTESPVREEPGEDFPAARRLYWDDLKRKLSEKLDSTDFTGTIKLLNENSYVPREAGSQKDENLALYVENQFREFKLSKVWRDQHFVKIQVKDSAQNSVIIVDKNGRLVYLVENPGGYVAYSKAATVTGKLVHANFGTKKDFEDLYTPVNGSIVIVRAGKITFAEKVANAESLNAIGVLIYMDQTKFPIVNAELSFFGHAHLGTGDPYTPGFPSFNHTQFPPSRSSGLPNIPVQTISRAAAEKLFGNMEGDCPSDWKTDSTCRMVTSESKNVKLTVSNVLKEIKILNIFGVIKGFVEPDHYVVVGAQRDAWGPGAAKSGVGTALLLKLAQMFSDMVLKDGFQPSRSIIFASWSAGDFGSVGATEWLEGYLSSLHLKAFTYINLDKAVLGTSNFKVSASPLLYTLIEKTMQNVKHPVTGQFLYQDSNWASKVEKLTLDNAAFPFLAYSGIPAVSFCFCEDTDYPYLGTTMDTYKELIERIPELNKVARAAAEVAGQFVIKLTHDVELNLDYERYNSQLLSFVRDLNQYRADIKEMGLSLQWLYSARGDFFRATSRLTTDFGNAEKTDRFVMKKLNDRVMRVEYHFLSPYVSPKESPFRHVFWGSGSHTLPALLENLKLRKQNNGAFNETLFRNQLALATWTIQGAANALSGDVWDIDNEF

[2] = target: T2, apical domain of cynomolgus CD71 (cynomolgus, UniProt A0A2K5X958 189-383); experiment: primary ELISA; also: test concentration or dose not given here
T2 construct: domain: apical domain; also called Cyno apical domain
T2 sequence (A0A2K5X958 entry or part of it): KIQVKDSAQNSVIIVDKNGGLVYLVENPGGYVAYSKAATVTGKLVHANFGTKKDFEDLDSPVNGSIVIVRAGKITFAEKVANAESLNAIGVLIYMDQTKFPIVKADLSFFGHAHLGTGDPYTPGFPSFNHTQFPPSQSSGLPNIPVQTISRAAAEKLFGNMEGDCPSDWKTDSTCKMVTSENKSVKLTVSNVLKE

[3] = target: T1, human CD71 extracellular domain; experiment: primary ELISA, signal ratio to HSA
[4] = target: T2, apical domain of cynomolgus CD71; experiment: primary ELISA, signal ratio to HSA

RLU [1]	RLU [2]	hCD71:HSA [3]	Cyno apical domain:HSA [4]	Binder
2.36e+06 RLU	4.21e+06 RLU	164	291	B1
3.19e+06 RLU	4.47e+06 RLU	108	15	B2
4.44e+06 RLU	5.02e+06 RLU	153	173	B3
7.01e+06 RLU	6.06e+06 RLU	172	149	B4
4.38e+06 RLU	5.02e+06 RLU	88	100	B5
4.2e+06 RLU	4.99e+06 RLU	92	109	B6
4.34e+06 RLU	5.23e+06 RLU	31	37	B7
3.55e+06 RLU	5.19e+06 RLU	151	220	B8
5.55e+06 RLU	3.78e+06 RLU	286	195	B9
3.81e+06 RLU	5e+06 RLU	127	166	B10
3.74e+06 RLU	5.08e+06 RLU	74	101	B11
2.56e+06 RLU	3.78e+06 RLU	52	77	B12
3.45e+06 RLU	4.87e+06 RLU	1380	1950	B13
4.4e+06 RLU	4.93e+06 RLU	109	122	B14
2.33e+06 RLU	3.95e+06 RLU	68	116	B15
2.84e+06 RLU	4.61e+06 RLU	133	216	B16

RLU [1]	RLU [2]	hCD71:HSA [3]	Cyno apical domain:HSA [4]	Binder
2.89e+06 RLU	4.32e+06 RLU	355	530	B17
1.01e+06 RLU	4.29e+06 RLU	21	91	B18
3.68e+06 RLU	4.43e+06 RLU	69	83	B19
3.61e+06 RLU	4.71e+06 RLU	127	165	B20
3.22e+06 RLU	4.54e+06 RLU	110	156	B21
2.63e+06 RLU	4.35e+06 RLU	289	478	B22
4.48e+06 RLU	4.63e+06 RLU	96	99	B23
3.66e+06 RLU	5.2e+06 RLU	48	68	B24
2.64e+06 RLU	4.77e+06 RLU	40	72	B25
3.81e+06 RLU	4.96e+06 RLU	101	131	B26
1.11e+06 RLU	3.37e+06 RLU	33	100	B27
4.41e+06 RLU	5.65e+06 RLU	234	300	B28
2.67e+06 RLU	3.91e+06 RLU	61	90	B29
3.06e+06 RLU	4.22e+06 RLU	67	93	B30
3.63e+06 RLU	4.75e+06 RLU	117	153	B31
